Measurements published in the DeepSol protein solubility set.

Test: soluble on expression in E. coli; label from the status in PepcDB or PDB records

Soluble on expression in E. coli, not soluble:
MGSDKIHHHHHHMYMYVNDKLVKEEEAIISPFDHGYMYGLGLFETFRLYEGHPFLLDDHFVRLEEGLRALAIDWTYNRSHVLHQLATLCNKNGVRNAYIRWNVSAGPGPIGLYTDTYKEPTVIIYMKSLPQGLSTRKTGTLLELRRNTPEGDRRLKSHHFLNNVLGKREVAKDPQTEGIFLTEDGVLAEGLTSNVFWVKNGVVYTPSVDTGILNGITRQFVLTLCDKEGIPWREGRYPKEALLKADGAFITNSIQEIVTLTSVGQAEFNQDEAVIMSLRKSYQKYCTKLWSKNEIKEGKQDVNNTCK, MGSDKIHHHHHHMYSSEKMQWFAMRATYRRGMQIKGLLDQKGINSFIPMRYEIHLKNGHRRRELVPVIRDIVFVHTTQSELQRIKYGIPYFQYMMDIRNGEKIIVPDEQMRRFIAVAGTYDEQIIFFSPDEVNLRKGTKVRITGGQFEGYEGVFVKVKGSRDRRVVISLQGILALAMATLSPDLIEVIEEPKKRNHD, MGSDKIHHHHHHMYTYKIGISKEEHDNFIKNSSQTNLLQSSSWAKVKDEWENERIGFYQDSKLVASASILIRPLPLGMTMFYIPRGPVMNYQDKDLVNFVLTSLKKFAKRKRALFIKFDPFILLNHHQIDEEAINNPQAQTIIDTLKHLGCEWLGQTSDMGETIQPRFQANIYAEGFSEANLSKKIRQSIRTAKNKGVSIRFGGYELLADFSDLMKKTEDRKSIHLRGIDYYRKLLDNYPQHSFITLASLNLKERLTELESQRKKAQNNLAKFGDNVKPSKIDNTKKEIERLSDEIAFLQEHLSQGKDTVPLSGTLSLEFGKTSENVYAGMDDEFRRYQAAIYTWFATANHAFERGSHWQNMGGIENDLSGGLYNFKSKFKPEIEEFIGEFNLPVSPLYKLANIAYTIRKKRRSKH, MGSDKIHHHHHHNDDPGKDPDVVTYDFKNLPADSGAKPTEDQMSAVVATFVDEVALPTYKDMLTKMTAYKNAVDKFIASGSKNDLADACDAWRAVRVPWEQSEAFLFGVADLAQLDPSLDSWPLDKNGIEEIIATGEFSKISGAVDEDAEDGPQNLRGFHTAEKMLFLDGEPRDLETSPFAKNELEYLKLVSERMLSDTQDLYNGWLKGLGTSDVPSSYAEAMKKHDGSAYSIGNVYQAIELMLNGNNGMAGISNEVGSAKITDPVTAWNGSNKDATDPNNPGVLAVESWYSWNSLDDYKNNIVSIKNAYFGGRDLDEESASESSLHALTKMINPTLDSLMVVQIDKTIDAINAIGYPFRNNLGDTEHINTATEACADLTTGLGVVKSKFTN, MGSDKIHHHHHHNEDDIFDESSAQRAIASVNECQEILKGAANGWLLEYYTGEDGEYGGFNVLARFDGNNVIMAADFATDNYEIGEESTSLYKVESYQGTELSFDSYNELIHEFCEPSGYNSPGYAGDYEFVFRSVSKEKIVLTGKKHGVTLIMTPLPAETNWQEKLTNIANVVSQASYVTYKLIVNGQEITKMGQEEHAFSVTKVDETGETTVSLYPFIYTEEGIKMYEPLVVNGVEINNFKWDNENLTYICTDTGVDAKIEFYCPEGYLNYLGNYILQLANGQRIQLELKQKMIGKSFAMNFALSGTPIEFVYNYNMTTDCIDVPSQTVGVYQGYNVLLYPGIPGGNFYADDSAVFQGRIANTDPLTIKFTYVNNPICTLMLLVYQKTDGWYGFSTMFQDVTLIKVD, MGSDKIHHHHHHNSALEWLQRAASAAKEQNYSGIYVYHHGDEVEVLRVLHRNDGRREQEKTEVMDGTQRHFLRVNSDVYCHLADGKQVRLERNASRRFFPAFLPARAAGLAELYEVKLGGVERVAGRPCQVVMLEPRDGYRHAFQLWLDSRTGLPLKSRIVNSDGEVVSMFVFSEVQIGRPPDASLFRNELAGKQVQQVSLGQRIDLPWSVTPPPGFERVQEAVRTLPGRNTPVTHLVFSDGLSVLSMFIEPADPGVPSLQGLSAEGAIGVYARALDGHTITTVGEVPNLALIETGNSVRRK, MGSDKIHHHHHHPEIIVPKPHQLKWHEAEMGAVFHYDLHVFDGIRYGQGNNRISPIEDYNIFNPTQLDTDQWIQAAKAAGCKFAVLTATHETGFGLWQSDVNPYCLKAVKWRDGKGDIVRDFVNSCRKYGIQPGIYVGIRWNSLLGIHNFKVAGDGEFAANRQAWYKRFCEKMVEELCTRYGDLYMIWFDGGADDPRGDGPDVEPIVNKYQPDCLFYHNIDRADFRWGGSETGTVGYPCWSTFPAPCSHHKRIESQKDQIALLKQGDPEGKYWVPAMADSPLRGANGRHEWFWEPDDENNIYPLTTLMDMYEKSVGRNATLIIGLTPDPDGLLPAGDEQRLKEWGEEINRRFGTPLAETQGRKQRLTLNLNEKQPVNYCIIQEDIAKGERIRQYKIEAKVNGKWQTVCSGESVGHKRIAHFEPVETTALRLTVTQSVAVPEIRHFSAYNVTLK, MGSDKIHHHHHHPSEEVAKSGNPVFEGWYADPEGIIYGDTYWIYPTTSDLYEKQTFFDCFSSKDLVSWTKHTAILDTAEVKWAKIAMWAPSVINKDGKYYLFFGANDVHEGEIGGIGVAVSDRPEGPYKDLLGKPLINEIVNGAQPIDQFVFHDADNDEYYMYYGGWKHCNMVRLNKDFTGLIPFEDGTIYKEVTPKDYVEGPFMFKKNGKYYFMWSEGGWTGPDYKVAYAISDSPFGPFNRIGEVLRQNFDMANGAGHHSIMHVPNSEDYYIVYHRRPAGVKTRDHRETCIEKMTFNEEGLINPVEITTEGVEARTIQ, MGSDKIHHHHHHQEKVSSMSEKSAPGSIQQPTRAQQLMGDIDPKLAELTDKVLFGDVWERKQLSKRDRSLVTVAALISLNRPDQLRSHMALALQNGVTREELVETITQLAFYTGWPNAVSAVPVARDVFRAADAAASHPDQGAQAQDDRTITVIHAGSQPSTHGSADHFTGSVQVDSRFQAQAPARSGGGIVTFEPGARTAWHTHPLGQTLIVTAGIGLVQQWGGPVQVIKPGDIVWIPPGVKHWHGATRTSGMTHIAIAEALDGKSVDWMELVMDAQYLGGQPR, MGSDKIHHHHHHQPIPDMAKAQTAALNSITAADLSAYLHIVASDSMEGRATGEAGQKRTALYLADKFKEFGLSPAVPTAVDKSYFQKFSLVEKTWKEVWLKVGNKQKEFLKDFYAYGDVQLPEATAMKIVCAGYGIEARNYSDYTNLDVKDKGVIIFTGEPFKDSVSLVTKTKQSSTWANDWRAKADLAYKKGAKAVFIIVGNTDTDFETRLAALKDHLNAPSMAFTHKKKASAFFVPASLAAEMLKSTPDALASYKKNRTGTNTPYPFKSAKVIAKAGVTERTVETENVLAVIEGSRYPEEIVVLTAHYDHLGIENGQICYGADDDGSGTVALLEIAQAFSIAKSLGHGPARTILFMPVTGEERGLMGSEYYTDKPVFPLKNTVADLNIDMIGRVDAAHPNVIDENYVYIIGDNRLSSELHTLSENANTGWQGPKIVLDYTYNSFDDPNRFYYRSDHYNFAKNNIPVIFYFSGIHADYHKPTDTVDKIRFDKMAKITQLVFLTAWQLANMDHRLVVDRTE, MGSDKIHHHHHHQQKSADVVENQFTTIKEVPITPVKDQANSGTCWSYSALGFLESEILRMGKPEVDLAEMHSVAQSYKDKGEKYVRMHGKLNFGQGGSFYDVLYVVKHYGVVPQSVMQGLNYGTKKNAHSELADGALAYLKAIVTNPNGKLTPAWKKAYDGIIDSYLGTCPETFTYEGKTYTPKSFAQYLGLNVDDYVSLTSYTHHPFYTQFALEIEDNWRGSLSYNMPINELMETMEYAINNGYSIAWGSDVSEVGFTRDGIGVLADVEGIEAKGSDQDRWVGLSRAEKQAEIIRTVNSADCPEINPTQEFRQKGYDEYSLTDDHGMVIYGIAKNQNGRKFFMVKNSWGETGKYKGIWYASYNFVAGRTMNIIVHKKAIPAAIAKKLGIRQ, MGSDKIHHHHHHQSTGQVTLGVLTDMSSVYADSAGKGSVAAVQLAIEDVGGKALGQPVKLVSADYQMKTDVALSIAREWFDRDGVDAIFDVVNSGTALAINNLVKDKKKLAFITAAAADQIGGTECNGYGIGFLYNFTSIVKTVVQAQLAKGYKTWFLMLPDAAYGDLMNAAIRRELTAGGGQIVGSVRFPFETQDFSSYLLQAKASGAQLIVSTSGGAANINIMKQAREFGLPSKTQKVGGMIDILTDVKSAGLRVMQGQEYATSFYWNMDDRTRAFAKRFYAKMGKMPTNNQAGGYSAALQYLKAVNAIGSKDPQKVFAYLKTIKFDDAVTRHGTLRPGGRLVRDMYLVRAKKPEDQKGDWDYYDVVATIGPEQAFGPLSESRCAMDK, MGSDKIHHHHHHQVSGDVVKIGILNDQSGLYADLAGAGSVQAARMAIEEFGGQVLGKKIELVWADHQNKADIGAGIARAWFDREGVDAIADFSNSSVGFAVQGLANERKKITLVAAGSSDFTGKACSPFSTQWVYNSYSNGYGLARLLASRGMDSVFLLTVDYTFGHAFANDVRKAVTENGGKVLGEVRFPLNSFDLSSYLLQAQASKAKLIVTAAAGSDMTSTVKQANEFGITPGQALAAPAVFITDVNSMGLQAAQGLQFVTAFYWDRTPDSRAWAEKFFARQKAMPSMTQAGVYSAVRHYLKAVEAAKTDDAVAVAAKMRELPVRDMNIENGRVREDGQVMHDMYLVEVKKPDESRRAWDYYKVLTTVPADQAFQALADSACPLVGKQ, MGSDKIHHHHHHREEAPNAEADILSCRLPGVVMTTSPIITNNSINIFVGPGTDISSLAPEFTLTPGATIDPPSGTARDFHSPQQYTVTAADGFWKKKYTVSVIDTELATIYNFEDTLGGQKYYIFVEREGEKVVMEWASGNAGYAMTGVPKTADDYPTFQFANGKTGKCLSLVTRSTGFFGSIMGMPIAAGNLFIGSFDVGNAMSNPLKATKFGLPFRHIPTYLAGYYKYKAGDQFTEGGKPVSGKRDICDIYAIMYETSESVPTLDGTNAFTSPNLVSIARIDDAKETDEWTYFKLPFHMLSGKYIDKEKLTAGKYNVAIVFTSSLEGDHFNGAIGSTLLIDEVELIYRSED, MGSDKIHHHHHHSCNEDDGAPYPSVRLEFLTAESGADGRLQTLVTDKGERLVVAEDRTESELLPNSSSRVVSNYEVLSSVGGRKEIRIYALANTVSPVPLPAGEFRNGLKFDPVDMLSIWMGRDYLNMTLSIRAQNARHTFHFIQESVERDAVTGKLKVHLMLYHDDGGDVEAYAKRAYVSVPLRQYTSDIGESVIIYFSFHTYDGEVQTYQFEYVPSHLTINY, MGSDKIHHHHHHSCTSQKKKLAKMHTEDTIVKAQLIQHTKESLLSPYQHVNFQLDLTKNKTAFYGYNTGSKWELWVKTDSTITFKYDGEEMVFSSAKTTEAQDNPVVKYHSKTIVSNPSQPGLKKSITVMIRDEKYLDEIQGTYVPLSVRIEVEDHTNKTTVIYAGGGFYVVNPIIHDIWVLDSMSNVKVSAENFPLGAPRLEFHLDGGKIYGFSGCNEITATFYTIQNQIQLNSEISTLKSCVHVPLEPLFMGALANKRYYYSFEERRLKLKHRDGSILSFKKVD, MGSDKIHHHHHHSDEEDGGSGGNLIYGGVSVSQEVLAHKPMLEKYAREYGIEEYLNVLLAIIQVESGGTLEDVMQSSESLGLPPNSLSTEESIKQGCKYFSELLAAAETKGCDLNSVIQSYNYGGGFLDYVAGHGKKYTFELAESFARDKSGGKKVTYTNPVAVEKNGGWRYSYGNMFYVLLVSQYLTVAQFDDETVQAIMEEALKYEGWTYVYGGDSPSTSFDCSGLVQWCYGKAGIALPRTAQEQYNVTQHIPLSEAKAGDLVFFHSTYNAGTYITHVGLYVGNNRMYHAGNPIGYADLTGSYWQQHLAGAGRIKQ
